Measurements: patent US20180194853A1 (published 2018)

Key:
recombinant human IL-2Rβ = target: T1, recombinant human IL-2Rβ (human, UniProt P14784 27-240); assay: SPR, receptor chain immobilised on the chip, antibody flowed over
T1 construct: Recombinant chain immobilised on the SPR chip and used as ELISA antigen; also called CD122; interleukin 2 receptor β
T1 sequence (looked up): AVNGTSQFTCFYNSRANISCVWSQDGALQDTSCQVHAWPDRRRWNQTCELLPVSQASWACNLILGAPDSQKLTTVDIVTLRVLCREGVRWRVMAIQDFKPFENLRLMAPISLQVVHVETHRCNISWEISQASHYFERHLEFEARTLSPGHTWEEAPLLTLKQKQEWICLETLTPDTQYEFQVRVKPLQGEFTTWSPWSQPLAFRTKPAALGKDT
Experimental: (§1) Association/dissociation of the anti-IL-2Rβ/γc bispecific antibody to/from the receptor chains was measured in Surface Plasmon Resonance using recombinant IL-2Rβ or γc chains immobilised on a chip, and flowing various concentrations of the antibody over the surface.

recombinant human γc = target: T2, recombinant human γc (human, UniProt P31785 23-262); assay: as above
T2 construct: Recombinant chain immobilised on the SPR chip and used as ELISA antigen; also called common γ chain; CD132
T2 sequence (looked up): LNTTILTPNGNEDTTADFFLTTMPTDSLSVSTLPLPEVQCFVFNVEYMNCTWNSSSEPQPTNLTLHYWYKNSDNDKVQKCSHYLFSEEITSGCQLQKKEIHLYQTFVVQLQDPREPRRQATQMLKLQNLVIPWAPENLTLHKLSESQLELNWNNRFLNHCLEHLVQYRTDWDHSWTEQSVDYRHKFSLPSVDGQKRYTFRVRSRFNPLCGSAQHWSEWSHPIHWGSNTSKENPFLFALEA
Experimental: as §1

Kd (recombinant human IL-2Rβ): 101 nM
Kd (recombinant human γc): 79.8 nM
B1: bispecific anti-IL-2Rβ/γc antibody P2H7/P2B9 (bispecific antibody)
chain 1: not shown
chain 2: QVQLQESGPGLVKPSETLSLTCTVSGGSISSSSYYWGWIRQPPGKGLEWIGSIYYSGSTYYNPSLKSRVTISVDTSKNQFSLKLSSVTAADTAVYYCAGDILTGYALDYWGQGTLVTVSSGGGGSGGGGSGGGGSSYELTQPPSMSVSPGQTARITCSGDALPKQFAFWYQQKPGQAPVLVIYKDTERPSGIPERFSGSSSGTTVTLTITGVQAEDEADYYCQSPDSSGTVEVFGGGTKLTVLNSGAGTAAATHTCPPCPAPEAAGGPSVFLFPPKPKDTLMISRTPEVTCVVVDVSHEDPEVKFNWYVDGVEVHNAKTKPREEQYNSTYRVVSVLTVLHQDWLNGKEYKCKVSNKALPAPIEKTISKAKGQPREPQVCTLPPSRDELTKNQVSLSCAVKGFYPSDIAVEWESNGQPENNYKTTPPVLDSDGSFFLVSKLTVDKSRWQQGNVFSCSVMHEALHNHYTQKSLSLSPGK
